Data on nine molecules can be found in patent publication US9766245B2, “Method of detecting cancer based on glycan biomarkers” (California Institute of Technology, priority 2013, dated 2017).

Data set [1] concerns the target T1, BgtA (Helicobacter mustelae, UniProt D3UIY4). As to the kind of experiment: Chemoenzymatic labeling of cell lysates, streptavidin capture and Western blotting. Format: biochemical. The settings on record: rat brain (olfactory bulb) lysates, BgtA + UDP-GalNAz, alkyne-biotin 11, streptavidin capture, immunoblot; in the presence but not absence of BgtA. (In western blotting, separated proteins are transferred to a membrane and probed.)

Data set [2] concerns the target T1, BgtA. In words: BgtA activity assay monitored by LC-MS/MS. The format is biochemical. The settings on record: donor substrate, 12 h at 4° C. The protocol: BgtA Activity Assay and Monitoring of Chemoenzymatic Labeling Reactions by LC-MS/MS.
The Fucα(1-2)Gal substrate 1 (10 μM) was dissolved in 20 mM Tris.HCl pH 7.5, 50 mM NaCl, and 5 mM MnCl2. BgtA enzyme (Yi, W.; Shen, J.; Zhou, G.; Li, J.; Wang, P. G. J. Am. Chem. Soc. 2008, 130, 14420.) and UDP-ketoGal 3 (Khidekel, N.; Arndt, S.; Lamarre-Vincent, N.; Lippert, A.; Poulin-Kerstien, K. G.; Ramakrishnan, B.; Qasba, P. K.; Hsieh-Wilson, L. C. J. Am. Chem. Soc. 2003, 125, 16162.) or UDP-GalNAz 2 (Invitrogen) were added to final concentrations of 0.16 mg/mL and 50 μM, respectively, in a final volume of 100 μL. The reaction was incubated at 4° C. in the dark for 12-16 h, and the reaction progress was monitored by LC-MS/MS. To label with aminooxy-biotin 7, the reactions were diluted 5-fold with saturated urea, 2.7 M NaOAc pH 3.9 (50 mM final concentration and pH 4.8), and 7 (5 mM final concentration, Dojindo) and incubated for 20-24 h at rt. To label with ADIBO-biotin 6, 250 μM of 6 (Click Chemistry Tools) was added, and the reaction was incubated for 3 h at rt. […]

The target of data set [3] is T1, BgtA. As to the kind of experiment: Kinetic analysis of BgtA with UDP-GalNAz and UDP-GalNAc. Format: biochemical. The note with it: 100 μM acceptor 1. The protocol: (§1) Kinetic Analysis of BgtA with UDP-GalNAz and UDP-GalNAc.
(§2) Reactions were performed in duplicate with 100 μM acceptor substrate (1), 0.7 μg BgtA, and varying concentrations of UDP-GalNAz or UDP-GalNAc (50 to 800 μM) in 20 mM Tris-HCl pH 7.5, 50 mM NaCl, 10 mM MnCl2 at rt in a total volume of 20 μL. Product formation was monitored at 280 nm by reverse phase-HPLC (Agilent 1100), and time points were taken over the course of 5 min using a linear, 3-95% gradient of B (A: 0.1% aqueous trifluoroacetic acid B: 0.1% trifluoroacetic acid in MeCN) over 8 min with a flow rate of 1 mL/min. The kinetic parameters, apparent Km, Vmax, and kcat, were obtained by linear regression analysis of initial velocity vs. donor substrate concentration using KaleidaGraph (version 4.1.2).

Data set [4] addresses T1, BgtA. As to the kind of experiment: BgtA labeling of Galβ(1-4)GlcNAc-pNP in solution. The format is biochemical. The settings on record: 2 h, 25° C.
Data set [5] has as its system CC(=O)N[C@H]1[C@@H](OP(=O)(O)OP(=O)(O)OC[C@H]2O[C@@H](n3ccc(=O)[nH]c3=O)[C@H](O)[C@@H]2O)O[C@H](CO)[C@H](O)[C@@H]1O. As to the kind of experiment: Kinetic analysis of BgtA with UDP-GalNAz and UDP-GalNAc. Format: biochemical, Helicobacter mustelae. The settings on record: other: donor substrate, 100 μM acceptor 1, donor 50 to 800 μM, rt; pH 7.5. The protocol: as §1, §2

Data set [6] relates to [N-]=[N+]=NCC(=O)N[C@H]1[C@@H](OP(=O)(O)OP(=O)(O)OC[C@H]2O[C@@H](n3ccc(=O)[nH]c3=O)[C@H](O)[C@@H]2O)O[C@H](CO)[C@H](O)[C@@H]1O. Described as above. The format is biochemical, Helicobacter mustelae. The settings on record: other: donor substrate, 100 μM acceptor 1, donor 50 to 800 μM, rt; pH 7.5. The procedure: as §1, §2
Data set [7] concerns the target T1, BgtA. In words: Chemoenzymatic labeling on the glycan array. The format is biochemical. The note with it: 0.5, 2 and 12 h, rt; ADIBO-biotin, Cy5-streptavidin; labeled if 12 h signal minus background >1000 relative fluorescence units. The procedure:
Chemoenzymatic Labeling on the Glycan Array.
Glycan Array version 5.0 was provided by the Consortium for Functional Glycomics (CFG). Pre-equilibrated arrays were treated with BgtA enzyme (0.16 mg/mL) and 500 μM UDP-GalNAz 2 in 20 mM Tris.HCl pH 7.4, 50 mM NaCl, 2 mM MnCl2 containing 1% bovine serum albumin (BSA) for various times (0, 0.5, 2, and 12 h) at rt, washed 4 times with wash buffer (20 mM Tris.HCl pH 7.4, 50 mM NaCl, 0.1% Triton X-100) and then 4 times with rinse buffer (20 mM Tris.HCl pH 7.4, 50 mM NaCl). The arrays were then incubated with ADIBO-biotin (5 μM) in 20 mM Tris.HCl pH 7.4, 50 mM NaCl for 2 h at rt. […] The arrays were then washed 4 times with wash buffer (containing 0.05% Tween-20 instead of 0.1% Triton X-100), 4 times with rinse buffer, 4 times with water, dried under a low stream of filtered air, and scanned using a PerkinElmer ScanArray Express fluorescence scanner and ImaGene data analysis software (BioDiscovery). Data were analyzed per the guidelines of the CFG. […] Because background fluorescence can be heterogeneous across the array, each array was divided into areas of 10 by 10 spots, or sub-arrays, and a background fluorescence value was calculated within each sub-array by the software. This value was then subtracted from the fluorescence signal for each glycan spot within the sub-array by the software. […]

Usually Km stands for the substrate concentration at which the rate is half of its maximum. By Vmax is commonly meant the top rate of the reaction or transport when substrate is in excess.

For the molecule “synapsin I: known Fucα(1-2)Gal glycoprotein in rat brain lysate”, the “chemoenzymatic labeling and detection of glycoprotein” value (shortened to “chemoenzymatic labeling and detection”) with BgtA [1] is “chemoenzymatically labeled and detected”. For “UDP-2-deoxy-2-(acetonyl)-β-D-galactopyranoside [UDP-ketoGal]”, the “conversion of substrate 1 to the desired product with BgtA” value on BgtA [2] is reported as “complete conversion”. As for `[N-]=[N+]=NCC(=O)N[C@H]1[C@@H](OP(=O)(O)OP(=O)(O)OC[C@H]2O[C@@H](n3ccc(=O)[nH]c3=O)[C@H](O)[C@@H]2O)O[C@H](CO)[C@H](O)[C@@H]1O` [UDP-GalNAz, UDP-N-azidoacetylgalactosamine], at BgtA [2], the “conversion of substrate 1 to the desired product with BgtA” value was “complete conversion”. The “kcat/Km fold lower than natural UDP-GalNAc substrate” value at BgtA [3] is on record as “approximately 7 fold”. As for `CC(=O)N[C@H]1[C@H](Oc2ccc([N+](=O)[O-])cc2)O[C@H](CO)[C@@H](O[C@@H]2O[C@H](CO)[C@H](O)[C@H](O)[C@H]2O)[C@@H]1O` [Galβ(1-4)GlcNAc-pNP, p-nitrophenyl 2-acetamido-2-deoxy-4-O-(β-D-galactopyranosyl)-β-D-glucopyranoside], at BgtA [4], the “labeling by BgtA in solution” value is “failed to label”. Turning to `CC(=O)N[C@H]1[C@@H](OP(=O)(O)OP(=O)(O)OC[C@H]2O[C@@H](n3ccc(=O)[nH]c3=O)[C@H](O)[C@@H]2O)O[C@H](CO)[C@H](O)[C@@H]1O` [UDP-GalNAc], at BgtA [3], the “Vmax fold higher than that of UDP-GalNAz” value is listed as “approximately 5 fold”. Take BgtA (Helicobacter mustelae 12198): in data set [5], the Km was determined as 127 ± 36 µM and the Vmax amounted to 0.100 ± 0.010 nmol/min. Also, in data set [6], the Km was 168 ± 55 µM and the Vmax came to 0.020 ± 0.002 nmol/min. For the molecule `CC(=O)N[C@@H]1[C@@H](O[C@@H]2O[C@H](CO)[C@H](O)[C@H](O)[C@H]2O[C@@H]2O[C@@H](C)[C@@H](O)[C@@H](O)[C@@H]2O)[C@H](O[C@@H]2O[C@@H](C)[C@@H](O)[C@@H](O)[C@@H]2O)[C@@H](CO)O[C@H]1O` [Glycan 61], the “labeling of glycan by BgtA and UDP-GalNAz on microarray” value on BgtA [7] is listed as “weak labeling”.

B1: NCAM: known Fucα(1-2)Gal glycoprotein in rat brain lysate (protein, UniProt P13596 20-858, looked up)
Neural cell adhesion molecule …: LQVDIVPSQGEISVGESKFFLCQVAGDAKDKDISWFSPNGEKLSPNQQRISVVWNDDDSSTLTIYNANIDDAGIYKCVVTAEDGTQSEATVNVKIFQKLMFKNAPTPQEFKEGEDAVIVCDVVSSLPPTIIWKHKGRDVILKKDVRFIVLSNNYLQIRGIKKTDEGTYRCEGRILARGEINFKDIQVIVNVPPTVQARQSIVNATANLGQSVTLVCDADGFPEPTMSWTKDGEPIENEEEDDEKHIFSDDSSELTIRNVDKNDEAEYVCIAENKAGEQDASIHLKVFAKPKITYVENQTAMELEEQVTLTCEASGDPIPSITWRTSTRNISSEEKASWTRPEKQETLDGHMVVRSHARVSSLTLKSIQYTDAGEYICTASNTIGQDSQSMYLEVQYAPKLQGPVAVYTWEGNQVNITCEVFAYPSATISWFRDGQLLPSSNYSNIKIYNTPSASYLEVTPDSENDFGNYNCTAVNRIGQESLEFILVQADTPSSPSIDRVEPYSSTAQVQFDEPEATGGVPILKYKAEWKSLGEEAWHSKWYDAKEANMEGIVTIMGLKPETRYAVRLAALNGKGLGEISAATEFKTQPVREPSAPKLEGQMGEDGNSIKVNLIKQDDGGSPIRHYLVKYRALASEWKPEIRLPSGSDHVMLKSLDWNAEYEVYVVAENQQGKSKAAHFVFRTSAQPTAIPANGSPTAGLSTGAIVGILIVIFVLLLVVMDITCYFLNKCGLLMCIAVNLCGKAGPGAKGKDMEEGKAAFSKDESKEPIVEVRTEEERTPNHDGGKHTEPNETTPLTEPEKGPVETKSEPQESEAKPAPTEVKTVPNEATQTKENESKA
Turning to B1, the “chemoenzymatic labeling and detection” value with BgtA [1] was “chemoenzymatically labeled and detected”.

B2: p44 MAPK: a protein that has not been shown to be fucosylated (protein, UniProt P21708 2-380, looked up)
Mitogen-activated protein …: AAAAAAPGGGGGEPRGTAGVVPVVPGEVEVVKGQPFDVGPRYTQLQYIGEGAYGMVSSAYDHVRKTRVAIKKISPFEHQTYCQRTLREIQILLRFRHENVIGIRDILRAPTLEAMRDVYIVQDLMETDLYKLLKSQQLSNDHICYFLYQILRGLKYIHSANVLHRDLKPSNLLINTTCDLKICDFGLARIADPEHDHTGFLTEYVATRWYRAPEIMLNSKGYTKSIDIWSVGCILAEMLSNRPIFPGKHYLDQLNHILGILGSPSQEDLNCIINMKARNYLQSLPSKTKVAWAKLFPKSDSKALDLLDRMLTFNPNKRITVEEALAHPYLEQYYDPTDEPVAEEPFTFDMELDDLPKERLKELIFQETARFQPGAPEAP
For B2, the “chemoenzymatic labeling and detection” value with BgtA [1] is “not detected”.
